Consider one molecule from patent US20060073572A1, “Cytokine structurally related to IL-17” (The Johns Hopkins University, priority 2001, published 2006).

Format in all cases: cell-based, human
Assay [1] relates to IL-6. Nature of the assay: IL-6 expression in PBECs (ELISA, RT-PCR). To be noted: ML-1 10 and 100 ng/ml, 24 and 48 hours, ELISA. On the procedure: (§1) FIG. 5. Analysis of IL-6 (FIG. 5A) and IL-8 (FIG. 5B) expression in primary bronchial epithelial cells (PBECs) and human umbilical vein endothelial cells (HUVECs) stimulated by ML-1. The IL-6 and IL-8 protein release in the supernatant was determined by ELISA as described in Example 8. The results were expressed as mean+SD (n=6). *p<0.05 was considered significant vs control.
(§2) FIG. 7A-7D. Effect of PD98059 on IL-6 (FIG. 7A) and IL-8 (FIG. 7B) protein production in PBECs and HUVECs. The cells were preincubated with varying concentrations of PD98059, SB202190, or DMSO vehicle control for 1 hour, followed by stimulation with ML-1 (100 ng/ml) for 24 hours. The results are expressed as the mean+SD (n=6). *P<0.05 when compared to cultures without the addition of PD98059. FIGS. 7C and 7D. Semi-quantitative analysis of gene expression for IL-6 (FIG. 7C) and IL-8 (FIG. 7D) by RT-PCR. The cells were preincubated as described above and treated with ML-1 for 4 hours. RT-PCR was performed as described in Example 8. The results shown are representative of three separate experiments.
Primary bronchial epithelial cells (PBECs) were purchased from Clonetics (San Diego, Calif.) and cultured in bronchial epithelial basal medium (Clonetics) containing 0.5 ng/ml human recombinant epidermal growth factor (EGF), 52 mg/ml bovine pituitary extract, 0.1 mg/ml retinoic acid, 0.5 mg/ml hydrocortisone, 5 mg/ml insulin, 10 mg/ml transferrin, 0.5 mg/ml epinephrine, 6.5 ng/ml triiodothyronine, […] gentamicin, and 50 pg/ml amphotericin-B (Clonetics). […]
(§3) The amplification reaction was performed for 23 cycles with denaturation at 94° C. for 45 seconds, annealing at 56° C. for 45 seconds, and extension at 72° C. for 45 seconds. PCR products were detected by ethidium bromide staining and normalized by the intensity of an amplified housekeeping gene, G3PDH (see above). […] IL-6 and IL-8 protein levels in the collected supernatants were determined with a commercially available ELISA kit (Biosource, Camarillo, Calif.) according to the manufacturer's instructions.
(ELISA stands for enzyme-linked immunosorbent assay.)

A further assay relates to ICAM-1. Nature of the assay: ICAM-1 surface protein expression on NHBE cells by flow cytometry. To be noted: 100 ng/ml, 48 hours, mean±SD (n=4). The method, then: FIG. 4. Effect of ML-1 on ICAM-1 surface expression on NHBE cells by Flow Cytometry. NHBE cells were treated for 48 hours under following conditions: medium only, rIL-17 (100 ng/ml), purified His-tagged protein (Positope, 100 ng/ml), or ML-1 (100 ng/ml) as indicated. The mean fluorescence intensity of ICAM-1 surface expression was measured. The experiment was conducted four times. The results shown are from a representative experiment. * p<0.01.
To determine whether ML-1 is able to induce ICAM-1 expression on NHBE cells, surface expression of ICAM-1 on NHBE cells was measured and the effects of ML-1 and IL-17 were compared.
NHBE cells were treated with IL-17 (100 ng/ml), ML-1 (100 ng/ml), or a control His protein (Positope, 100 ng/ml). The cells were harvested following treatment with 0.1% trypsin-0.02% EDTA at 37° C. for 6 minutes and suspended in PBS containing 2% BSA and 0.02 % sodium azide. One million cells were incubated with a mouse anti-human ICAM-1 monoclonal antibody (R&D Systems, Minneapolis, Minn.) on ice for 30 minutes. […] After three additional washes in PBS, the cells were resuspended in PBS and immediately analyzed with a FACScan flow cytometer (Becton Dickinson, Mountain View, Calif.). […] Indices are expressed as mean±SD (n=4).
(In flow cytometry, cells or beads pass a laser one at a time.)

The test system of assay [2] is IL-6. The experiment in a line: IL-6 expression in HUVECs (ELISA, RT-PCR). To be noted: ML-1 10 and 100 ng/ml, 24 and 48 hours, ELISA. On the procedure: as §1, §2
Human umbilical vein endothelial cells (HUVECs) were obtained from Clonetics and cultured in endothelial cell growth media (EGM; Clonetics) containing 12 μg/ml bovine brain extract, 10 ng/ml EGF, 1 μg/ml hydrocortisone, 50 μg/ml gentimicin, 50 ng/ml amphotericin B, and 5% FBS amphotericin-B (Clonetics).
PBECs and HUVECs were treated with ML-1 100 ng/ml of ML-1 for various time points. Total RNA was extracted using RNeasy (Qiagen) from 1×10^6 cells 4 hours after stimulation or exchange of media. […]
as §3

“Also recorded” adds a separate entry of the source.

B1: ML-1: new member of the IL-17 cytokine family, SEQ ID NO:2; His-tagged recombinant protein expressed in COS-7 cells and affinity purified (protein, listed as Homo sapiens)
chain: MKLDIGIINENQRVSMSRNIESRSTSPWNYTVTWDPNRYPSEVVQAQCRNLGCINAQGKEDISMNSVPIQQETLVVRRKHQGCSVSFQLEKVLVTVGCTCVTPVIHHVQ
modifications: His tag
In the case of B1, the IL-6 production entry with IL-6 [1] and in the assay with IL-6 [2] was “time-dependent increase; also recorded: significantly induced” each time. Besides, in the assay with ICAM-1, the “ICAM-1 surface expression, mean fluorescence intensity (MFI)” value is 31.42±4.39.
